Measurements as given in the supplement of paper PMC9233669.
Fewer inactive variants are shown than the library holds.

How the values were obtained:
[1] = tested on: biotinyl-Phe-oxazolone; assay: self-aminoacylation, catalytic enhancement (BFO) (fold over background); higher = more active; k-Seq, kA / k0A0; sequences stand for … in GGGAAUGGAUCCACAUCUACGAAUUC…UUCACUGCAGACUUGACGAAGCUG
Method in brief: (§1)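 Working in 50 μL HEPES/NaCl/KCl/MgCl2/CaCl2 buffer with 5% acetonitrile at pH 6.9–7.0, mutagenized RNA pools (0.43 μM; 21-nt variable region) were reacted with 2–1250 μM of each biotinyl-aminoacyl-oxazolone for 90 minutes at room temperature. Streptavidin capture followed, with quantification by triplicate qPCR and Illumina sequencing. Catalytic enhancement is reported as median kA over the uncatalyzed rate, the low-activity peak of a bimodal Gaussian fit to the data.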

[2] = tested on: biotinyl-Ile-oxazolone; assay: self-aminoacylation, catalytic enhancement (BIO) (fold over background); higher = more active; k-Seq, kA / k0A0; sequences stand for … in GGGAAUGGAUCCACAUCUACGAAUUC…UUCACUGCAGACUUGACGAAGCUG
Method in brief: as §1

[3] = tested on: biotinyl-Met-oxazolone; assay: self-aminoacylation, catalytic enhancement (BMO) (fold over background); higher = more active; k-Seq, kA / k0A0; sequences stand for … in GGGAAUGGAUCCACAUCUACGAAUUC…UUCACUGCAGACUUGACGAAGCUG
Method in brief: as §1

[4] = tested on: biotinyl-Val-oxazolone; assay: self-aminoacylation, catalytic enhancement (BVO) (fold over background); higher = more active; k-Seq, kA / k0A0; sequences stand for … in GGGAAUGGAUCCACAUCUACGAAUUC…UUCACUGCAGACUUGACGAAGCUG
Method in brief: as §1

[5] = tested on: biotinyl-Leu-oxazolone; assay: self-aminoacylation, catalytic enhancement (BLO) (fold over background); higher = more active; k-Seq, kA / k0A0; sequences stand for … in GGGAAUGGAUCCACAUCUACGAAUUC…UUCACUGCAGACUUGACGAAGCUG
Method in brief: as §1

[6] = tested on: biotinyl-Trp-oxazolone; assay: self-aminoacylation, catalytic enhancement (BWO) (fold over background); higher = more active; k-Seq, kA / k0A0; sequences stand for … in GGGAAUGGAUCCACAUCUACGAAUUC…UUCACUGCAGACUUGACGAAGCUG
Method in brief: as §1

Row | Sequence | self-aminoacylation [1] | self-aminoacylation [2] | self-aminoacylation [3] | self-aminoacylation [4] | self-aminoacylation [5] | self-aminoacylation [6]
1 | CUACAUCAAACAAUCGGUUUG [Fam1A.1 aminoacylation ribozyme variant] | 1.9 | 0.906 | 0.646 | 0.821 | 0.781 | 1.05
2 | CCACACUUCAUGCAAUUGGUC [Fam1B.1 aminoacylation ribozyme variant] | 0.619 | 0.658 | 0.764 | 0.791 | 0.627 | 0.43
3 | CUAGUUCAAACAAUCGGUCUA [Fam1A.1 aminoacylation ribozyme variant] | 2.81 | 0.813 | 0.777 | 0.759 | 0.647 | 1.43
4 | AUUACCCUGGGCAUCGAGCGA [Fam2.1 aminoacylation ribozyme variant] | 7.68 | 1.26 | 1.08 | 1.48 | 0.813 | 1.43
5 | CUACUCCAAACAAUGGGUCUG [Fam1A.1 aminoacylation ribozyme variant] | 0.772 | 0.948 | 0.784 | 0.863 | 0.799 | 0.754
6 | CUACUUCAAACAAUCAGUCUA [Fam1A.1 aminoacylation ribozyme variant] | 15.7 | 0.871 | 0.841 | 0.9 | 0.776 | 5.04
7 | AUUACUCUGGUAAUCGAGUGA [Fam2.1 aminoacylation ribozyme variant] | 45.5 | 3.66 | 7.65 | 3.46 | 8.85 | 9.06
8 | AAGUUUGCUAAUGGACGCAAG [Fam3.1 aminoacylation ribozyme variant] | 1.18 | 0.591 | 0.604 | 0.576 | 0.83 | 0.56
9 | CUAAUUCAAACAAUAGGUCUG [Fam1A.1 aminoacylation ribozyme variant] | 1.11 | 0.773 | 0.704 | 0.77 | 0.706 | 0.666
10 | UUUACCAUGGUCAUCGAGUGA [Fam2.1 aminoacylation ribozyme variant] | 20.9 | 4.43 | 7.28 | 4.57 | 7.39 | 9.91
11 | AAGAUUGCUAAUAGUGGCAAG [Fam3.1 aminoacylation ribozyme variant] | 0.997 | 0.786 | 0.871 | 0.702 | 0.906 | 0.941
12 | AUUAGCCUGGUCAUCGAGUUA [Fam2.1 aminoacylation ribozyme variant] | 1.15 | 1.36 | 1.41 | 1.24 | 1.27 | 0.867
13 | CCAUACGUCAAGCAAUCGGUC [Fam1B.1 aminoacylation ribozyme variant] | 0.88 | 1.04 | 1.03 | 1.12 | 1.34 | 1.16
14 | CUACUUCAGACUAUCGGUCUG [Fam1A.1 aminoacylation ribozyme variant] | 0.949 | 0.816 | 0.734 | 0.943 | 0.832 | 0.939
15 | CCACACUUCAACUAAUCGGUC [Fam1B.1 aminoacylation ribozyme variant] | 22.8 | 0.859 | 0.753 | 0.925 | 1.04 | 11.6
16 | AUUCCCCUAGGUCAUCUGGUG [Fam2.2 aminoacylation ribozyme variant] | 107 | 10.6 | 14.7 | 9.58 | 18.8 | 15.3
17 | CUUCUUCAAACAAUCGGGCUG [Fam1A.1 aminoacylation ribozyme variant] | 5.81 | 1.29 | 1.25 | 1.06 | 1.43 | 4.55
18 | CUACUUCCAACAAUCGGUAUG [Fam1A.1 aminoacylation ribozyme variant] | 0.634 | 0.654 | 0.611 | 0.782 | 0.663 | 0.533
19 | AUGUUUGCUAAUAAUCGCAAG [Fam3.1 aminoacylation ribozyme variant] | 1.34 | 1.38 | 0.97 | 1.35 | 1.06 | 1.04
20 | AUUCACGUAGGUCAUCGUGUG [Fam2.2 aminoacylation ribozyme variant] | 7.45 | 1.15 | 1.57 | 1.28 | 1.82 | 1.79
21 | CUGCUUCAAAGAAUCGGUCUG [Fam1A.1 aminoacylation ribozyme variant] | 14.5 | 1.04 | 1.19 | 0.891 | 1.39 | 11.7
22 | AUUCACCUAGGUCAUCCUGUG [Fam2.2 aminoacylation ribozyme variant] | 1.42 | 1.13 | 0.923 | 0.885 | 1.04 | 0.316
23 | AAUCACCUUGGUCAUCGGGUG [Fam2.2 aminoacylation ribozyme variant] | 43.2 | 4.22 | 6.06 | 5.18 | 6.76 | 8.74
24 | AGGUUUGCUAAUCGUCGCAAG [Fam3.1 aminoacylation ribozyme variant] | 2.43 | 1.42 | 1.44 | 1.34 | 1.45 | 1.98
25 | GUUCACCUAGGUCAUCGGGGG [Fam2.2 aminoacylation ribozyme variant] | 6.24 | 2.93 | 4.28 | 3.43 | 5.9 | 4.61
26 | AUUGGCCUGGUCAUCGAGUGA [Fam2.1 aminoacylation ribozyme variant] | 30.7 | 4.1 | 6.17 | 4.31 | 7.35 | 9.15

Row | Sequence | self-aminoacylation [1] | self-aminoacylation [2] | self-aminoacylation [3] | self-aminoacylation [4] | self-aminoacylation [5] | self-aminoacylation [6]
27 | UCACACUUCAAGCAAUAGGUC [Fam1B.1 aminoacylation ribozyme variant] | 0.918 | 0.671 | 0.434 | 0.668 | 0.495 | 0.559
28 | CCACACUUCAAGCAAUAGCUC [Fam1B.1 aminoacylation ribozyme variant] | 0.859 | 0.691 | 0.708 | 0.816 | 0.941 | 0.427
29 | AUUCACCUAGGUCAUCCGUUG [Fam2.2 aminoacylation ribozyme variant] | 4.37 | 1.31 | 0.997 | 1.19 | 1.16 | 0.699
30 | AUUUACAUAGGUCAUCGGGUG [Fam2.2 aminoacylation ribozyme variant] | 39 | 3.38 | 5.69 | 3.38 | 6.44 | 5.5
31 | CGACUUCAACCAAUCGGUCUG [Fam1A.1 aminoacylation ribozyme variant] | 64.2 | 1.56 | 1.35 | 1.42 | 2.26 | 31.6
32 | AUUACCCUGAUCAUCGAGUCA [Fam2.1 aminoacylation ribozyme variant] | 0.555 | 0.738 | 0.577 | 0.786 | 0.722 | 0.305
33 | AUAACCCCGGUCAUCGAGUGA [Fam2.1 aminoacylation ribozyme variant] | 32.9 | 3.75 | 7.41 | 3.32 | 7.29 | 6.89
34 | AUUCACCUCGCUCAUCGGGUG [Fam2.2 aminoacylation ribozyme variant] | 13.5 | 2.57 | 3.42 | 2.74 | 3.61 | 3.01
35 | AUUCACCUAGCCCAUCGGGUG [Fam2.2 aminoacylation ribozyme variant] | 13.6 | 2 | 2.92 | 2.58 | 3.35 | 3.11
36 | AUUACCCUGGUCAUCGAGCGU [Fam2.1 aminoacylation ribozyme variant] | 4.33 | 2.77 | 4.25 | 2.36 | 4.95 | 4.83
37 | CUCCUUCAAACAAUCGGUUUG [Fam1A.1 aminoacylation ribozyme variant] | 43.9 | 1.17 | 1.3 | 1.4 | 1.89 | 30.6
38 | AUUACCCUGCUCAUGGAGUGA [Fam2.1 aminoacylation ribozyme variant] | 63.7 | 4.53 | 9.54 | 4.47 | 10.1 | 12.3
39 | UUUCACCUAGGUCAUCGGGGG [Fam2.2 aminoacylation ribozyme variant] | 21.3 | 3.52 | 2.73 | 3.25 | 4.45 | 3.77
40 | CUAAUUCAAACAACCGGUCUG [Fam1A.1 aminoacylation ribozyme variant] | 0.916 | 0.947 | 0.958 | 0.754 | 0.724 | 0.69
41 | CUACUUGAAAUAAUCGGUCUG [Fam1A.1 aminoacylation ribozyme variant] | 0.723 | 0.785 | 0.801 | 0.784 | 0.68 | 0.619
42 | AACUUUGCUAAUAGUCGCUAG [Fam3.1 aminoacylation ribozyme variant] | 2.6 | 2.28 | 2.22 | 1.64 | 2.78 | 1.84
43 | UUUCACCUAGGUCAACGGGUG [Fam2.2 aminoacylation ribozyme variant] | 15.6 | 2.27 | 3 | 2.25 | 2.65 | 3.09
44 | GCACACUUCAAGCAAUCGCUC [Fam1B.1 aminoacylation ribozyme variant] | 12.2 | 3.18 | 2.84 | 2.92 | 2.82 | 4.76
45 | CCACACUUCAAGCUAUCCGUC [Fam1B.1 aminoacylation ribozyme variant] | 0.797 | 1.04 | 0.761 | 1.27 | 0.736 | 1.13
46 | CUACUUCAGACAACCGGUCUG [Fam1A.1 aminoacylation ribozyme variant] | 0.886 | 0.968 | 1.22 | 1.28 | 1.03 | 0.969
47 | AAUCACCUAGUUCAUCGGGUG [Fam2.2 aminoacylation ribozyme variant] | 16.3 | 3.01 | 3.33 | 3.16 | 2.59 | 3.72
48 | CCACACUUCAAGCAAUCACUC [Fam1B.1 aminoacylation ribozyme variant] | 0.957 | 0.591 | 0.509 | 0.669 | 0.43 | 0.564
49 | AUUACCCUGGUCAUCGGGGGA [Fam2.1 aminoacylation ribozyme variant] | 44.2 | 4.75 | 7.12 | 5.36 | 9.21 | 10.7
50 | AUCAGCCUGGUCAUCGAGUGA [Fam2.1 aminoacylation ribozyme variant] | 32.5 | 3.99 | 4.28 | 3.49 | 4.62 | 6.36
51 | AUUACCCUCGUCAUUGAGUGA [Fam2.1 aminoacylation ribozyme variant] | 11.2 | 2.22 | 4.09 | 2.55 | 3.99 | 5.16
